Experimental findings from publication PMC3795256, “Dynamic Regulation of Ero1α and Peroxiredoxin 4 Localization in the Secretory Pathway*^([image sbox.jpg])” (The Journal of Biological Chemistry, 2013) are described below.

The labels stand for the following.
B2: recombinant human ERp44 (natural protein, UniProt Q9BS26 30-406, looked up)
chain: EITSLDTENIDEILNNADVALVNFYADWCRFSQMLHPIFEEASDVIKEEFPNENQVVFARVDCDQHSDIAQRYRISKYPTLKLFRNGMMMKREYRGQRSVKALADYIRQQKSDPIQEIRDLAEITTLDRSKRNIIGYFEQKDSDNYRVFERVANILHDDCAFLSAFGDVSKPERYSGDNIIYKPPGHSAPDMVYLGAMTNFDVTYNWIQDKCVPLVREITFENGEELTEEGLPFLILFHMKEDTESLEIFQNEVARQLISEKGTINFLHADCDKFRHPLLHIQKTPADCPVIAIDSFRHMYVFGDFKDVLIPGKLKQFVFDLHSGKLHREFHHGPDPTDTAPGEQAQDVASSPPESSFQKLAPSEYRYTLLRDRDEL
notes: human ERp44, recombinant; a construct made in E. coli probably lacks the signal peptide; source: E. coli BL21 (DE3), purified (HisTrap, Superdex 200, Resource Q)
B3: recombinant human Ero1α (WT) (natural protein, UniProt Q96HE7 24-468, looked up)
chain: EEQPPETAAQRCFCQVSGYLDDCTCDVETIDRFNNYRLFPRLQKLLESDYFRYYKVNLKRPCPFWNDISQCGRRDCAVKPCQSDEVPDGIKSASYKYSEEANNLIEECEQAERLGAVDESLSEETQKAVLQWTKHDDSSDNFCEADDIQSPEAEYVDLLLNPERYTGYKGPDAWKIWNVIYEENCFKPQTIKRPLNPLASGQGTSEENTFYSWLEGLCVEKRAFYRLISGLHASINVHLSARYLLQETWLEKKWGHNITEFQQRFDGILTEGEGPRRLKNLYFLYLIELRALSKVLPFFERPDFQLFTGNKIQDEENKMLLLEILHEIKSFPLHFDENSFFAGDKKEAHKLKEDFRLHFRNISRIMDCVGCFKCRLWGKLQTQGLGTALKILFSEKLIANMPESGPSYEFHLTRQEIVSLFNAFGRISTSVKELENFRNLLQNIH
notes: human Ero1α, wild type, recombinant; also called purified human Ero1α; source: recombinant, purified

Settings in all cases: both partners purified
Test [1] has as its target B2. Nature of the test: SPR; ProteOn XPR36; Ero1α (WT) or Prx4 amine-coupled to a GLC chip, PDI or ERp44 as analyte (0.444–36 μM); 25 °C; 20 mM HEPES-NaOH pH 7.4, 150 mM NaCl, 0.001% Tween, 2 mM EDTA; two-state model. (SPR reads the build-up and loss of mass on a sensor chip optically.)
The target in test [2] is B2. In words: SPR; ProteOn XPR36; Ero1α (WT) or Prx4 amine-coupled to a GLC chip, ERp44 as analyte (0.444–36 μM); 25 °C; 20 mM HEPES-NaOH pH 6.4, 150 mM NaCl, 0.001% Tween, 2 mM EDTA; two-state model.
Test [3] concerns the target B3. Nature of the test: SPR; ProteOn XPR36; Ero1α (WT) or Prx4 amine-coupled to a GLC chip, PDI or ERp44 as analyte (0.444–36 μM); 25 °C; 20 mM HEPES-NaOH pH 7.4, 150 mM NaCl, 0.001% Tween, 2 mM EDTA; two-state model.
Test [4] has as its target B3. Nature of the test: SPR; ProteOn XPR36; Ero1α (WT) or Prx4 amine-coupled to a GLC chip, ERp44 as analyte (0.444–36 μM); 25 °C; 20 mM HEPES-NaOH pH 6.4, 150 mM NaCl, 0.001% Tween, 2 mM EDTA; two-state model.
The target of the next test is T1, recombinant human PDI (human, UniProt P07237 18-508).
T1 construct: human PDI, recombinant; also called protein disulfide isomerase; source: recombinant, purified
T1 sequence (P07237 18-508): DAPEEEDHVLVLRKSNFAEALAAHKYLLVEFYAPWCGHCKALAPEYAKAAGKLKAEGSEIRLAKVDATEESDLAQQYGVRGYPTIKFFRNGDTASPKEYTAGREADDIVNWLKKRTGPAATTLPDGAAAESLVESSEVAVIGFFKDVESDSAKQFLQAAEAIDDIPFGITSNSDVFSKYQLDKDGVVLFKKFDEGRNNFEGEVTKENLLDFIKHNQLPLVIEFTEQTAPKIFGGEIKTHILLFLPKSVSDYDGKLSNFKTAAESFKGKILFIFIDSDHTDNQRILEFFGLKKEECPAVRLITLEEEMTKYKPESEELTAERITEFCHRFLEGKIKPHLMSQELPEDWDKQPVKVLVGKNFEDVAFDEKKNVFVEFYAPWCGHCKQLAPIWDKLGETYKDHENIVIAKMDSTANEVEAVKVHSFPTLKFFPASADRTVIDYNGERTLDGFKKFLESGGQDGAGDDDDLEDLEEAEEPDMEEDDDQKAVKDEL
In words: SPR; ProteOn XPR36; Ero1α (WT) or Prx4 amine-coupled to a GLC chip, PDI or ERp44 as analyte (0.444–36 μM); 25 °C; 20 mM HEPES-NaOH pH 7.4, 150 mM NaCl, 0.001% Tween, 2 mM EDTA; two-state model.

As a reminder, the Kd is the equilibrium constant for the complex coming apart.

B1: recombinant human Prx4 (natural protein, UniProt Q13162 38-271, looked up)
chain: WETEERPRTREEECHFYAGGQVYPGEASRVSVADHSLHLSKAKISKPAPYWEGTAVIDGEFKELKLTDYRGKYLVFFFYPLDFTFVCPTEIIAFGDRLEEFRSINTEVVACSVDSQFTHLAWINTPRRQGGLGPIRIPLLSDLTHQISKDYGVYLEDSGHTLRGLFIIDDKGILRQITLNDLPVGRSVDETLRLVQAFQYTDKHGEVCPAGWKPGSETIIPDPAGKLKYFDKLN
notes: human Prx4, recombinant; a construct made in E. coli probably lacks the signal peptide; also called purified human Prx4; peroxiredoxin 4; source: E. coli BL21 (DE3), purified (HisTrap, Superdex 200, Resource Q)
B1: the Kd in the test with recombinant human ERp44 [1] was 17.9 µM; with recombinant human ERp44 [2] it was 6.92 µM.

Regarding B2, the equilibrium dissociation constant (Kd) in test [3] is 10.4 µM; in test [4], 5.15 µM.

Take B3: in the test with recombinant human PDI, the dissociation constant (Kd) was 1.94 µM.
